From the supplement of paper PMC9732359 come the findings set out here.

± gives the uncertainty stated by the source.

This series is described as follows: protein stability index of a GFP-peptide fusion (yeast GPS) (PSI 1-4); higher = more stable; sorted into four equal gates, so the index is relative within each strain. In short, it runs like this:
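Tiled 17-residue peptides from yeast proteins were fused downstream of GFP on a plasmid that also expresses Cherry, and the pooled library was carried in yeast. Mid-log cultures grown in leucine-free medium were sorted into four equal gates by GFP/Cherry fluorescence ratio. Plasmids from each gate were PCR-amplified and Illumina-sequenced, and reads were assigned to strains by barcodes. Each peptide's protein stability index is the sum, over gates, of the gate's read frequency multiplied by its gate number.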

LGDMENNLEKYPFRYKT [RTT102]: the protein stability index by setting is: (doa10∆) 3.44 ± 0.073; (pdr5∆) 3.39 ± 0.055; (san1∆) 3.46 ± 0.042; (ubr1∆) 3.43 ± 0.081.

Take LGHKELKVRKGHIAKLM [RPB2]: the protein stability index came out at 2.54 ± 0.066 (doa10∆), 2.53 ± 0.064 (pdr5∆), 1.97 ± 0.1 (san1∆) and 2.72 ± 0.047 (ubr1∆).

As for LGKFKNIIASPLSAGFN [SIN4], the protein stability index by setting is: (doa10∆) 1.88 ± 0.06; (pdr5∆) 1.94 ± 0.05; (san1∆) 1.95 ± 0.09; (ubr1∆) 2.04 ± 0.056.

LGKVRFANYKLLLKKII [SRB4] returned a protein stability index (doa10∆) of 1.71 ± 0.063, a protein stability index (pdr5∆) of 1.62 ± 0.05, a protein stability index (san1∆) of 1.43 ± 0.14 and a protein stability index (ubr1∆) of 1.53 ± 0.044.

On to LGKWYSKEDYETLKRDR [ARP7], for which the protein stability index is, setting by setting: (doa10∆) 3.31 ± 0.15; (pdr5∆) 2.75 ± 0.2; (san1∆) 3.33 ± 0.16; (ubr1∆) 2.95 ± 0.15.

As for LGLGIAFAGSKNDEVLG [RPN1], the protein stability index was found to be 3.09 ± 0.3 (doa10∆), 2.94 ± 0.15 (pdr5∆), 2.81 ± 0.26 (san1∆) and 3.04 ± 0.14 (ubr1∆).

In the case of LGNTVSTQPSFAWSKPS [YGR119C/NUP57], the protein stability index runs as follows: (doa10∆) 2.62 ± 0.067; (pdr5∆) 2.84 ± 0.056; (san1∆) 2.85 ± 0.077; (ubr1∆) 2.25 ± 0.035.

Turning to LGNVIVPNILSLDMNSM [NUT1], the protein stability index reads like this: (doa10∆) 2.16 ± 0.06; (pdr5∆) 2.17 ± 0.058; (san1∆) 2.04 ± 0.093; (ubr1∆) 2.27 ± 0.051.

Take LGRDYPIEVDEELLQLF [IRR1]: the protein stability index turned out to be 2.19 ± 0.24 (doa10∆), 1.99 ± 0.24 (pdr5∆) and 1.81 ± 0.24 (ubr1∆).

LGRVRNHFIFNVESAGA [RPC40]: the protein stability index runs as follows: (doa10∆) 1.38 ± 0.062; (pdr5∆) 1.5 ± 0.069; (san1∆) 1.62 ± 0.09; (ubr1∆) 1.27 ± 0.065.

As to LGSKKELGISLEHPYGK [SNU114], the protein stability index runs as follows: (doa10∆) 3.08 ± 0.11; (pdr5∆) 2.99 ± 0.13; (san1∆) 3.1 ± 0.15; (ubr1∆) 3.28 ± 0.088.

Consider LGVEDITLIDSASLHLN [RET1], for which the protein stability index by setting is: (doa10∆) 2.03 ± 0.063; (pdr5∆) 1.61 ± 0.043; (san1∆) 1.8 ± 0.1; (ubr1∆) 1.8 ± 0.046.

With LGVVFGRGGSGWKPYYK [YML031W/NDC1], for the setting “san1∆”, the protein stability index was determined as 3.4 ± 0.12.

Regarding LGWIHTQTEELKFMAAS [PRP8], the protein stability index reads like this: (doa10∆) 2.59 ± 0.087; (pdr5∆) 2.62 ± 0.077; (san1∆) 2.64 ± 0.063; (ubr1∆) 2.71 ± 0.063.

On to LHGNAKKAAEEAGVTDV [FAS2], for which the protein stability index was 3.42 ± 0.12 (doa10∆), 3.18 ± 0.12 (pdr5∆), 3.13 ± 0.12 (san1∆) and 3.34 ± 0.15 (ubr1∆).

As to LHIHGSSNPLGITGNLD [COB], the protein stability index turned out to be 2.92 ± 0.087 (doa10∆), 2.91 ± 0.078 (pdr5∆), 2.7 ± 0.05 (san1∆) and 2.66 ± 0.054 (ubr1∆).

For the sequence LHPQLHEVQYQESSSTL [SIN4], the protein stability index amounted to 2.28 ± 0.049 (doa10∆), 2.5 ± 0.041 (pdr5∆), 2.41 ± 0.07 (san1∆) and 2.3 ± 0.035 (ubr1∆).

Turning to LHPYVPSSKPQEQVYPD [SRB8], the protein stability index by setting is: (doa10∆) 2.81 ± 0.24; (pdr5∆) 2.92 ± 0.12; (san1∆) 3.08 ± 0.093; (ubr1∆) 3.25 ± 0.15.

With LHVVSKSSIEKDPSPEI [SIN4], the protein stability index (doa10∆) came out at 2.91 ± 0.054, the protein stability index (pdr5∆) amounted to 3.03 ± 0.066, the protein stability index (san1∆) was determined as 3.13 ± 0.052 and the protein stability index (ubr1∆) worked out at 3.14 ± 0.051.

For the sequence LIAVYYSFGGLLMRLEG [RPB8], the protein stability index by setting is: (doa10∆) 2.69 ± 0.059; (pdr5∆) 2.79 ± 0.076; (san1∆) 3.07 ± 0.1; (ubr1∆) 2.89 ± 0.069.

With LIELLTQMDGFDQSTNV [RPT3], the protein stability index by setting is: (doa10∆) 2.33 ± 0.088; (pdr5∆) 2.19 ± 0.075; (san1∆) 1.56 ± 0.15; (ubr1∆) 2.05 ± 0.08.

As for LIETVFVKNIRMLSFED [RPN9], the protein stability index by setting is: (doa10∆) 2.19 ± 0.044; (pdr5∆) 1.89 ± 0.05; (san1∆) 1.78 ± 0.066; (ubr1∆) 1.97 ± 0.041.

Turning to LIFIACNDEDKDLETLY [ECM29], the protein stability index was found to be 3.11 ± 0.084 (doa10∆), 3.04 ± 0.067 (pdr5∆), 2.3 ± 0.089 (san1∆) and 2.92 ± 0.035 (ubr1∆).

With LIIVTRKNYMHVKNFGF [YML031W/NDC1], the protein stability index came to 1.22 ± 0.042 (doa10∆), 1.52 ± 0.048 (pdr5∆), 1.51 ± 0.1 (san1∆) and 1.87 ± 0.04 (ubr1∆).

LIKDNSAMVTTAAAADI [SRB2] gave a protein stability index (pdr5∆) of 1.78 ± 0.29.

As to LIKNGKKVTAFVPNDGC [RPS23A], the protein stability index is, setting by setting: (doa10∆) 3.03 ± 0.11; (pdr5∆) 3.31 ± 0.061; (san1∆) 3.45 ± 0.039; (ubr1∆) 3.38 ± 0.054.
